{"source": "patent US20220127341A1", "about": "(HUDSON INSTITUTE OF MEDICAL RESEARCH, published 2022)", "binders": {"B1": {"name": "monoclonal anti-KRT14 antibody AN-17 (antibody, V domains shown)", "VH": "QVQLKESGPGLVAPSQSLSITCTVSGFSLSRYSVHWVRQPPGKGLEWLGMIWGGGSTDYNSALKSRLSISKDNSKSQVFLKMNSLQTDDTAMYYCARKDYGYSYFDYWGQGTTLTVSS", "VL": "DVLMTQTPLSLPVSLGDQASISCRSSQSIVHSNGNTYLEWYLQKPGQSPKLLIYKVSNRFSGVPDRFSGSGSGTDFTLKISRVEAEDLGVYYCFQGSHVPFTFGSGTKLEIKR", "notes": "the isotype-matched control used is mouse IgG1 kappa; Some assays used it conjugated to Alexa Fluor 488 or Alexa-647; also called mAb AN-17; mAb AN17"}}, "key": {"[1]": {"target": "T1, human KRT14 (Keratin, type I cytoskeletal 14) as expressed by human cancer cells and tumour tissue (Homo sapiens (Human), UniProt P02533 1-472)", "T1 construct": "whole, on cells; Probed on intact cells (surface-exposed N-terminal portion), on permeabilized cells and in FFPE tissue sections; also called K14; Keratin-14", "T1 sequence (looked up)": "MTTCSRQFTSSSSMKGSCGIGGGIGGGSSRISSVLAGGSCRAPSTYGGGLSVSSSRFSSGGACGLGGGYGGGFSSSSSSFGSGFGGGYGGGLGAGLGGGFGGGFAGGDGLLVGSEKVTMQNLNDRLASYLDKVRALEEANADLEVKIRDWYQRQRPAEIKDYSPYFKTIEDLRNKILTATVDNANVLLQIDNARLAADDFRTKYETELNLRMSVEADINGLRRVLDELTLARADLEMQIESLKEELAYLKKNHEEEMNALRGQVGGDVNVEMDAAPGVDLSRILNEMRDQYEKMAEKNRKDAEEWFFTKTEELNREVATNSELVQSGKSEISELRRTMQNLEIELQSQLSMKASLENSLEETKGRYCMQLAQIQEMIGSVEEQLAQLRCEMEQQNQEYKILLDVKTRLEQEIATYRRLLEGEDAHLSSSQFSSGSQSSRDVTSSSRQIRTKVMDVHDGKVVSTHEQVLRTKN", "experiment": "flow cytometry", "method": "OVCAR3, CAOV4, ID8 and the patient-derived 3.1937-07 cell lines were analysed on a BD LSRFortessa X-20 (BD Biosciences) flow cytometer for KRT14+ cell populations, using mAb AN-17 or a commercially available polyclonal antibody to KRT14 (Sigma SAB4501657).\n(§1) Flow cytometry was carried out according to standard protocols (PMID: 30602661), with data acquired using a BD LSRFortessa X-20 (BD Biosciences) and analysed using FlowJo software v10.5.0 (BD Biosciences). Samples assessed for KRT14+ cell populations included OVCAR3, CAOV4, ID8 mouse ovarian cancer cells, ascites-derived ovarian cancer cells derived from a clinical specimen (designated #3.1937-07) and cardiac blood from a mice bearing 12-week old epithelial ovarian tumours. For cell lines, 1×10⁶ cells per cell line were incubated with either mAb AN-17 (1:200 dilution) or a commercially available anti-KRT14 polyclonal antibody (Sigma SAB4501657; 1:50 dilution) as a positive control for 45 mins in non-immune serum at room temperature. The secondary antibodies, goat anti-mouse Alexa647 (mAb AN-17) or goat anti-rabbit IgG Alexa 488 (commercial Ab), were diluted 1:500 and incubated for 30 minutes. For blood samples. 2×10⁶ cells were incubated with an Alexa Fluor® 488-conjugated mAb AN-17 antibody for 45 minutes. […]"}, "[2]": {"target": "T2, mouse KRT14 (Keratin, type I cytoskeletal 14) as expressed by murine ID8 ovarian cancer cells (Mus musculus (Mouse), UniProt Q61781 1-484)", "T2 construct": "whole, on cells; also called non-human protein", "T2 sequence (looked up)": "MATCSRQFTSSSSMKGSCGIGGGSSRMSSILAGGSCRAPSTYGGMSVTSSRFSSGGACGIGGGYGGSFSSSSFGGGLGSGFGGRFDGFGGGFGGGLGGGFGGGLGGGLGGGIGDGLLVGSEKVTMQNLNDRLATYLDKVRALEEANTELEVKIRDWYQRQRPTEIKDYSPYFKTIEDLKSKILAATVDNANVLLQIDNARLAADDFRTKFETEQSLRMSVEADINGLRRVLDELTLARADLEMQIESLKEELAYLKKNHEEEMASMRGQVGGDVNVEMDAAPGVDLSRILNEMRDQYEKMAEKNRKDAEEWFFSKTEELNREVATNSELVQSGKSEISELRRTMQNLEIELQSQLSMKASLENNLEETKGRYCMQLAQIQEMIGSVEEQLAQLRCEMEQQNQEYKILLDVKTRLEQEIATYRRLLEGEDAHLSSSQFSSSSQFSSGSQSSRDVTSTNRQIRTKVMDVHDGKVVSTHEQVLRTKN", "experiment": "flow cytometry of cardiac blood stained with anti-CD45 and mAb AN-17", "method": "Cardiac blood was taken from mice bearing 12-week old ID8 iRFP720+ epithelial ovarian tumours and stained using anti-CD45 and mAb AN-17. Circulating ID8 tumour cells were identified as KRT14+CD45− cells and confirmed by iRFP720+ status. iRFP720+ID8 cells spiked into blood was used as a positive control.\nas §1"}}}
{"binder": "B1", "values": [{"measurement": "binding result", "setting": "[1]", "value": "binds"}, {"measurement": "binding result", "setting": "[2]", "value": "binds"}]}
